Reference: PMC3397996, “Ultramarine, a Chromoprotein Acceptor for Förster Resonance Energy Transfer” (PLoS ONE, 2012)

How the values were obtained:
[1] = target: Rtms5^F162R (Montipora efflorescens); experiment: SEC; Superdex S200 10/30, 100 µl of 1 mg/ml applied, 20 mM Tris-HCl pH 8.0, 300 mM NaCl, column calibrated with molecular weight standards; self-association
[2] = target: HcRed; experiment: as above
[3] = target: Rtms5^S125R/F162P (Montipora efflorescens); experiment: SEC; gel filtration, data not shown; self-association
[4] = target: Rtms5^S125R/F162P (Montipora efflorescens); experiment: AUC; sedimentation velocity, 20°C, 300 mM NaCl, 20 mM Tris pH 8.0, samples at 0.1 mg/ml and 1.0 mg/ml, 40,000 rpm; self-association
[5] = target: Rtms5^S125R (Montipora efflorescens); experiment: SEC; Superdex S200 10/30, 100 µl of 1 mg/ml applied, 20 mM Tris-HCl pH 8.0, 300 mM NaCl, column calibrated with molecular weight standards; self-association
[6] = target: the molecule itself; experiment: AUC; sedimentation velocity, 20°C, 300 mM NaCl, 20 mM Tris pH 8.0, samples at 0.1 mg/ml and 1.0 mg/ml, 40,000 rpm; self-association

With Rtms5^F162R (natural protein) as the molecule, how does the stoichiometry N [1] read?
The stoichiometry N was 2.

How did the stoichiometry N [2] turn out when HcRed was run?
Its stoichiometry N is 2.

Which results are given for Rtms5^S125R/F162P (natural protein)?
stoichiometry N [3]: 2; stoichiometry N [4]: 2

How did the stoichiometry N [5] turn out when Rtms5^S125R (natural protein) was run?
The stoichiometry N was 2.

B1: Rtms5 (natural protein)
chain: MSVIATQMTYKVYMSGTVNGHYFEVEGDGKGRPYEGEQTVKLTVTKGGPLPFAWDILSPQCQYGSIPFTKYPEDIPDYVKQSFPEGFTWERIMNFEDGAVCTVSNDSSIQGNCFTYHVKFSGLNFPPNGPVMQKKTQGWEPHSERLFARGGMLIGNNFMALKLEGGGHYLCEFKTTYKAKKPVKMPGYHYVDRKLDVTNHNKDYTSVEQCEISIARKPVVA
notes: Cloned in pQE9N; also called wildtype Rtms5; source: E. coli BL21-DE3 (pQE9N:Rtms5), purified (Ni-NTA)
For B1, which “stoichiometry N” value [6] is on record?
The value was 4.
